# Experimental data taken from paper doi:10.1101/695700 (bioRxiv, 2019).
# B1: recombinant HC1 (rHC1), wild type; heavy chain 1 of inter-α-inhibitor (natural protein, human, UniProt P19827 35-672, looked up)
# chain: SKSSEKRQAVDTAVDGVFIRSLKVNCKVTSRFAHYVVTSQVVNTANEAREVAFDLEIPKTAFISDFAVTADGNAFIGDIKDKVTAWKQYRKAAISGENAGLVRASGRTMEQFTIHLTVNPQSKVTFQLTYEEVLKRNHMQYEIVIKVKPKQLVHHFEIDVDIFEPQGISKLDAQASFLPKELAAQTIKKSFSGKKGHVLFRPTVSQQQSCPTCSTSLLNGHFKVTYDVSRDKICDLLVANNHFAHFFAPQNLTNMNKNVVFVIDISGSMRGQKVKQTKEALLKILGDMQPGDYFDLVLFGTRVQSWKGSLVQASEANLQAAQDFVRGFSLDEATNLNGGLLRGIEILNQVQESLPELSNHASILIMLTDGDPTEGVTDRSQILKNVRNAIRGRFPLYNLGFGHNVDFNFLEVMSMENNGRAQRIYEDHDATQQLQGFYSQVAKPLLVDVDLQYPQDAVLALTQNHHKQYYEGSEIVVAGRIADNKQSSFKADVQAHGEGQEFSITCLVDEEEMKKLLRERGHMLENHVERLWAYLTIQELLAKRMKVDREERANLSSQALQMSLDYGFVTPLTSMSIRGMADQDGLKPTIDKPSEDSPPLEMLGPRRTFVLSALQPSPTHSSSNTQRLPDRVTGVDTD
# B2: vitronectin (natural protein, UniProt P04004 20-478, looked up)
# chain: DQESCKGRCTEGFNVDKKCQCDELCSYYQSCCTDYTAECKPQVTRGDVFTMPEDEYTVYDDGEEKNNATVHEQVGGPSLTSDLQAQSKGNPEQTPVLKPEEEAPAPEVGASKPEGIDSRPETLHPGRPQPPAEEELCSGKPFDAFTDLKNGSLFAFRGQYCYELDEKAVRPGYPKLIRDVWGIEGPIDAAFTRINCQGKTYLFKGSQYWRFEDGVLDPDYPRNISDGFDGIPDNVDAALALPAHSYSGRERVYFFKGKQYWEYQFQHQPSQEECEGSSLSAVFEHFAMMQRDSWEDIFELLFWGRTSAGTRQPQFISRDWHGVPGQVDAAMAGRIYISGMAPRPSLAKKQRFRHRNRKGYRSQRGHSRGRNQNSRRPSRATWLSLFSSEESNLGANNYDDYRMDWLVPATCEPIQSVFFFSGDKYYRVNLRTRRVDTVDPPYPRSIAQYWLGCPAPGHL
# How the values were obtained:
# [1] = target: the molecule itself; assay: AUC
# [2] = target: the molecule itself; assay: AUC; remark: listed apart in the source
# [3] = target: B1; assay: SPR
Kd [3],Binder,stoichiometry N [1],Kd [2]
–,B1,2,35.3 µM
~0.0002 µM,B2,–,–
